The data set has as its system fat grafts (human lipoaspirate). In words: In-vivo murine model of adipose tissue reconstruction: lipoaspirate fat graft perfused via silk fibroin-based catheter and osmotic pump. Here is the method: Female athymic nude mice were divided into 3 groups: animals treated with insulin (n=24), dexamethasone (n=15), or PBS vehicle (n=10). The groups were further subdivided into four different doses for insulin (e.g., ˜100 μg, ˜300 μg, ˜650 μg, or ˜1000 μg) or three different doses for dexamethasone (e.g., ˜1 mg/ml, ˜2 mg/ml, ˜3 mg/ml). Osmotic pumps that can deliver a fluid with a selected flow rate for a period of time were prepared with the insulin or dexamethasone solution or PBS vehicle. In this Example, ALZET 4-week osmotic pumps with a selected flow rate of ˜0.11 μl/hr were used. One end of the silk fibroin-based catheter was connected to the pump, e.g., using medical grade silicone (e.g., Dow Corning) (FIG. 8A). The silk catheter/pump construct was primed for 48 hours at 37° C., per manufacturer's instructions.
Lipoaspirate grafts were obtained from human subcutaneous abdominal fat during scheduled elective surgery and processed for injection under laboratory conditions. Lipoaspirate was loaded into ˜1 ml syringes in sterile fashion. Mice were anesthetized with 2% isoflurane in oxygen at the time of the procedure. Once the anesthetic plane was obtained, the animals were prepped for sterile surgery. Each animal received two bilateral ˜500 μl subcutaneous injections of lipoaspirate on the dorsal region, for example, through a 16G Coleman cannula using the fan-injection technique, which uniformly spreads the fat graft created beneath the cutaneous layer. For each animal, one of the two fat grafts received a silk fibroin-based catheter connected to an implantable osmotic pump. The silk catheter/pump was implanted subcutaneously through a small incision between the scapulae, and the fat graft was placed surrounding the silk fibroin-based catheter. The incision for the catheter/pump implantation was closed with a standard wound clip. To prevent and/or reduce pain and discomfort, mice were given subcutaneous injections of ˜5 mg/kg ketoprofen (Fort Dodge Animal Health, Fort Dodge, Iowa) immediately after the surgical procedure and every 24 hours as needed.
At 4 weeks post surgery, the mice were euthanized using carbon dioxide asphyxiation followed by cervical dislocation, and graft tissue was isolated from the bilateral dorsal injection sites. Explants were assessed for mass on a standard laboratory balance, and volume was measured using a gas pycnometer (Accupyc II 1340; Micrometrics, Atlanta, Ga.). Immediately after the dimensional analysis was complete, the tissue samples were fixed in 10% neutral buffered formalin and processed and embedded in paraffin.

For insulin, the survival of animals result (highest insulin groups, ~1000 μg and ~650 μg) is given as “generally died during the study period”. The “group (dose) with the highest volume retention” value (insulin at ~0.11 μL/hr, 28 days post-implantation) is about 300 µg. Also, the “H&E: cellular response to the silk fibroin-based catheter” value (insulin doses, 28 days) is “little to no cellular response”. In addition, for the setting “insulin ~300 μg group”, the deaths result is listed as “no deaths due to drug overdose”. Further, the “fat retention and adipogenesis” value (insulin ~300 μg group, 28 days) was “trend toward fat retention and adipogenesis”. Further, the “H&E: tissue around the silk fibroin-based catheter” value (insulin ~1000 μg dose, 28 days) is “a fibrous tissue was observed to surround the silk fibroin-based catheter”. Where the note is “insulin ~100, ~300, ~650, ~1000 μg at ~0.11 μL/hr, 28 days post-implantation, gas pycnometry”, the “volume retention of fat grafts, statistical significance” value is on record as “no statistical significance in volume retention”. Further, where the note is “insulin-treated mice, 4 weeks”, the “fat graft health / biocompatibility” value is listed as “no evidence of oil cysts or adverse biocompatibility reaction”.
For `C[C@@H]1C[C@H]2[C@@H]3CCC4=CC(=O)C=C[C@]4(C)[C@@]3(F)[C@@H](O)C[C@]2(C)[C@@]1(O)C(=O)CO` [dexamethasone], the “dose with the largest effect on fat graft volume” value (dexamethasone at ~0.11 μL/hr, 28 days post-implantation) was about 2 mg/mL. Moreover, where the note is “mouse, in vivo”, the “adverse events during the therapy” value is on record as “no adverse events”.

These data come from patent US20160279299A1, “SILK FIBROIN-BASED FLUID DELIVERY SYSTEMS AND DEVICES” (TRUSTEES OF TUFTS COLLEGE, priority 2013, published 2016).
